This is an account of results in a protein production outcome set (Wang et al. 2014).
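Also: failed if final PepcDB status was selected cloned or expressed and not failed if soluble or beyond.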

The nature of the data set: label from the status in PepcDB records.
With “MPQPKKDKPDTPLRSDAQRNRERILAVATEELTHCANAPLSAIAKKAGVGQGTFYRNFPNREALVLEIYRYGMQQVAEAAPEMLATGEPDLALRQWMDRLAEFAMTKAGLADAIRLVTSAPGAPEKPRPTPLEDAAELLLRANHEAGTIRPGVTGDDFFLVLGGLWLIDPGENWQPRVTRFLDLVMDGLRAGAPGR”, the protein production entry was “not failed”. Under “MKTVGVVLSGCGVLDGAEIHESVLTMLALDRAGAEVLFFAPDKPQLHVINHITGEIVAEERNVLVESARIARGLITPLSAADPEVLDALIVPGGFGAAKNLCDFAIKGGECSVEPDLYKLIQLMHKSGKPIGLMCISPVMLPKLLGKPIRLTIGNDPDTIDAIEIMGGEHVICPADDVVIDLENKVVTTPAYMLAGSISEAAKGIDKLVTKVLDLTE” stands “failed”; under “AQGQRRAPLSVVFTEPQVASVGLSLRQIEDLYADQDAANYVVGQVSFEGQGRSRVMGKNKGLLNVYADRTSGEFLGAEMFGPAAEHIGHLLAWARQQQMTVQAMLTMPFYHPVIEEGLRTALRDAQQKLA”, “not failed”. Under “EITSANTEWFFNPNAYVIIAESVESGKIVGGARIHIVGGTQPLPIEDAIGKMDPHIYKLVEEHGKKGSGELCGLWNAREVAGMGISTMLTRAAIALAIQLNLSTLFVICAERTYQNIFKDQGFEIIP” stands “failed”; under “MGYTLAEFLAHAIALETEAAERYVELADMMEAHNNLDTATVFRDMARFSTLHGDEIKQRSRALELPKLMSWQYRWKTPPEVGDENDIHYLMTPYHALRYARDNEIRGMEYYKEAAANSADPEVKRLGADFAAEEAEHVVALDKWIEKTPRPSITWSEDADPAQCVD”, “not failed”; under “MVRVDQNLFNEVMYLLDELSQDITVPKNVRKVAQDSKAKLSQENESLDLRCATVLSMLDEMANDPNVPAHGRTDLYTIISKLEALS”, “not failed”. Under “MCLPIHVKYDWFCRLCKTGRTLRPTSLQRGRAMASLTLRHLAGNTWLIPAPAAIGVYVRNGRAVLIDSGNDEEAGRQILKLLNGQGWTLDLIVNTHSNADHIGGNAFLQKKTGCRVAATVPEAAFIANPILEPSFLYGGYPVKALRNKFLMAKPSTVTDIIEAIGPILDTGLEAVPLAGHFFGMIGIRTPDGVLFAADSLFPETILAKYPIFYLYDIREHLASLQRLRELEAAIYVPSHGAPSPEILPLIEANEQRVRQTVSFVESCCTDAPASFETVLERVCGEYGIVLDPNQYVLVGNTIRSILAFLSEEGRLAMIFDGGRLLWGTAADQREA” stands “failed”. Take “MSMGKKHLNINSQNHQSTKDEDNNCKNSLFFGLFDDPESKRLRSGSMKRQYSDMGDSYHRVYDEQNDDVEYDGDGDGDEDEGSRMDMRVLMVLEYMRELYVGQLQLLKKMFPGAAKDEFLGFFNKIGDAVSQIKQDSRPPTKSMTMRRSLSAGSPRFTSKGVNLGPSDLRHERFKVTMVNAGGAAGSAGGGKGGSAAGQGQTKK”: the protein production entry was “failed”.

As for “MNYKVLAYITAYNDYFALNRCIDGLINQTYKIDYLLIVDNSSRPIPIQKLGNNLSIEVQHHPENIGVAGGLTLGIQYAIHKKFDFIWLFDQDSTPYENALENLIYFYDKYINKSEIGILSCAVQDRETGQINCGFIYKNYRFYQQQIDSRKAVYECDAVITSGTLLNCHAAKEIGLPNESLFMDAVDFDYCMKLRKQDYKIFTVCNAKINHRFGNSKSIQLFNRTKFIYLYSSLRYFYVHRNHTYLETRLAKNCLFFIISTFYRIFKSFRKIFVILLFEDSQRLLKIYACSKGTVDGLLGKLGKTWT”, the protein production result was “failed”. On to “MHYRWTLLTLAASLLCVPSASGLAEFGIEGMGVVSTPANEARATLSPDGQRIVWASDRTGGTGGWDLWQAQLRGGRWQDAQPLPINTAQDETTPLFSADGRWLLFASTRPGGAGGSDLYRAPVDAQGAVGPVQSLGAAIDSAGNERAPTLSLDGTRLLFASDGHGGAGGMDLFVAHWDGQAFTAPVALVDINSAADELDAAWLGDGRALVWARGKTDDPSQLLLAICKDGHFVQGSPLPLSFNGPQERTFGAVVDTAKPGELLVTGSARAPRAGQLDIYRMKAPAADGDASCR”, for which the protein production result is “failed”. Under “MENGFFVKINYRIYTTFSEKHGIILSIISKKENPMAIYFGTYTKRESKGIYKANFDSETGQLSNLELVTEEPNPTYLAFDKAGHLYSVGAENGLGGIAAFNTDYTLLNHVVSEGAPLCYVAVDEARDLVYGSNFHKGQLLVYKRLADGSLELADVAQHEGSGPHENQASAHVHFSDLTPDKFLVTCDLGCDQVVTYKVSDQGKVEKIATYQAAPGSGPRHIVFHTVAKIAYLICELNSTIEVLIYDGWGQFEHLQTVSTLPEDHTGFNGTAAIRITKDGKFIYGSNRGNDSIAVYKTLADASLELVEIVPTNGKTPRDFTLSPDEKHLIVVHQDSDNATVFKRDAENGCLTELSHDFYVPEAVCVTFL” stands “failed”; under “MKHIHSYYSPNNLYNKIIEGLNNLGKDLSSVTPDDLQPVDEFHIRGDIATKELIELGNFTPDMHILDVGCGVGGSTRRLSHETGCHVTGIDLSDEYIDAAERLTQLLNMQARVKFNVGSALELPYADNTFDGAWSIQMNMNVEDKLGWLKEMYRVLKPGARAVLYEVCGHEEKTIYFPVPWAQDSSMSFLIPKEAFRDLIASTGFKIEVWNDKSDLAQKAFARMREPTGESTLPELGLHMLIGNDIKTKAYNMRRNLDDERISLIEILAIKPS”, “failed”. Under “MSDEVPEILLAHYLKTLKLPTFQREYQKLARLCATEGVDHVEYLLRLSEREMIERDRRKVERRIKAARFPVVKSLDSFDFAAIPKLNKMQVLELARCEWIERRENVIALGPSGTGKTHVALGLGLAACQKGLSVGFTTAAALVSEMMEARDERRLLRFQKQMAAYQLLIIDELGFVPLSKTGAELLFELISQRYERGATLITSNLPFDEWTETLGSERLTGALLDRITHHVNILEMNGDSYRLAQSRARKAGLEHHHHHH” stands “not failed”; under “PQEKLKLLAFTGTKGKTTAAYFAYHMLKESYKPAMFSTMNTTLDGKTFFKSQLTTPESLDLFAMMAECVTNGMTHLIMEVSSQAYLVDRVYGLTFDVGVFLNISPDHIGPIEHPTFEDYFYHKRLLMENSRAVVINSGMDHFSFLADQVADQEHVFYGPLSDNQITTSQAFSFEAKGQLAGHYDIQLIGHFNQENAMAAGLACLRLGASLADIQKGIAKTRVPGR”, “failed”; under “PEAMLIVDQNGQIVFSNSRCQQLFGYDAKAMLALQIETLLPEELRHLHTGERLDFLREGRDRPMASARHVRALKSDGGEFVAEIALSILPSDFD”, “failed”. Under “MRFLFLLFIVFPAIEIGIFLFLGNLIGILPTVLFMILTGIIGAAAAKKQGTEVYYKVQRDLQYGKMPGEAIADGLCIFIGGLLLMLPGFLSDLAGACLLIPFTRGWCKPILFKWLRGMSKNKRIIIK” stands “failed”; under “MEFSGRKWRKLRLAGDQRNASYPHCLQFYLQPPSENISLIEFENLAIDRVKLLKSVENLGVSYVKGTEQYQSKLESELRKLKFSYRENLEDEYEPRRRDHISHFILRLAYCQSEELRRWFIQQEMDLLRFRFSILPKDKIQDFLKDSQLQFEAISDEEKTLREQEIVASSPSLSGLKLGFESIYKIPFADALDLFRGRKVYLEDGFAYVPLKDIVAIILNEFRAKLSKALALTARSLPAVQSDERLQPLLNHLSHSYTGQDYSTQGNVGKISLDQIDLLSTKSFPPCMRQLHKALRENHHLRHGGRMQYGLFLKGIGLTLEQALQFWKQEFIKGKMDPDKFDKGYSYNIRHSFGKEGKRTDYTPFSCLKIILSNPPSQGDYHGCPFRHSDPELLKQKLQSYKISPGGISQILDLVKGTHYQVACQKYFEMIHNVDDCGFSLNHPNQFFCESQRILNGGKDIKKEPIQPETPQPKPSVQKTKDASSALASLNSSLEMDMEGLEDYFSEDS”, “failed”; under “MSRSRHCPAVLIAAPASGQGKTTVTAALARLHRNLGRKVRVFKCGPDFLDPMILERASGAPVYQLDLWMIGAEESRRLLWEAAGEADLILIEGVMGLFDGTPSSADLARHFGVPVLAVIDGTAMAQTFGALALGLARYQADLPFAGVLANRVGSLRHAQLLEGSLTEGLRWYGGLSRERGIELPSRHLGLVQASELNDLDTRLDAAAEALGASCDAALPPPVSFAEPEPQACVASLAGVRIGVARDEAFAFIYGANLDLLRNLGAQLVFFSPLHDHELPAVDSLYLPGGYPELHHHALAANAPMCEAIRAHHAQGKPLLAECGGMLYLLDALTDVAGERAELLGLLPGEATMQKRLAALALQAVELPEGTLRGHTYHHSLTSTALEPIARGLSPNGGRGNEAVYRLGRLTASYVHFYFPSCPDAAAALLRP”, “failed”. For “MIIRNGCLEDLQQVISIEQINFSEAEAASKKAMQERLTIMTDTFLVAEINGRLAGYIEGPVIKGRYLTDDLFHKVSEFPVRVGGFIGITSLSIHPDFKGQGIGTALLAAMKDLVVSQERDGISLTCHDDLISFYEMNGFKDEGESDSKHGGSLWYNMIWNNPTRSIC”, the protein production entry was “failed”. Under “MYLLRINIEGTINYGLYKYLYPALKAAEGKKSIAGLILVFNSGGGDAASSQLIHDLVKKIRKKKPVYSLALGICASGAYWIASASTKIYAIDTSLIGSIGVISIRPNVKKLMEKIGVDVMVYKSGKYKDMTSPFSEPNEEEKSVYQRLLDDIFEKFKRSVAEDRGIPSEKIDEIANGMVYSAKMAADNGLIDRIANYDDLVSDLTKEVGKRLKVKEFYIRKPLLQRLLGILEHHHHHH” stands “failed”; under “EQNSKEKFKQLFRVLEDTFARPLSPYEIETLNQWIDVDKHDSAIIQAALDEANSLNKLSFKYMDRILLNWKKNNV”, “failed”; under “MSVSVKGNEQLTSLLNDWYRAMLSQQVIKATNLKKKIDEKINKLSIEPDQEHQDQNLLLYYSLLEFRYKVLTDSLGIQQNSFDTISDYDMPTDQFLQFYYHFFKSIHSTFISNYTEAEEHYKLAEKILVAIPDEIEHAEFYYRIATFYHHTYNNLASIEYANKSRAIFSKYEGYEVKTAFCNSLLGGCCIYLKQYEQAEEYLHCAIDLLQKNREEDSLLYVKNTMGWLYSDQSMSTLAIRHLSEVTEKIPTHFKAIFLQAKEHYKLGEQSTASQLIDKGLQICREIHNEEYTHHFSILKKLNENIPLEELEKIIQEGILYFEEEELWEYVVEYAELFATKCRQLENHQKVSDYFHICYQARQKSIAKGVLK”, “failed”. Under “MNNNEKKVKYFLRKTAYGLASMSAAFAVCSGIVHADTSSGISASIPHKKQVNLGAVTLKNLISKYRGNDKAIAILLSRVNDFNRASQDTLPQLINSTEAEIRNILYQGQIGKQNKPSVTTHAKVSDQELGKQSRRSQDIIKSLGFLSSDQKDILVKSISSSKDSQLILKFVTQATQLNNAESTKAKQMAQNDVALIKNISPEVLEEYKEKIQRASTKSQVDEFVAEAKKVVNSNKETLVNQANGKKQEIAKLENLSNDEMLRYNTAIDNVVKQYNEGKLNITAAMNALNSIKQAAQEVAQKNLQKQYAKKIERISSKGLALSKKAKEIYEKHKSILPTPGYYADSVGTYLNRFRDKQTFGNRSVWTGQSGLDEAKKMLDEVKKLLKELQDLTRGTKEDKKPDVKPEAKPEAKPDVKPEAKPDVKPEAKPDVKPEAKPDVKPEAKPDVKPEAKPDVKPKAKPDVKPEAKPDVKPDVKPDVKPEAKPEDKPDVKPDVKPEAKPDVKPEAKPEAKPEAKPEAKPEAKPEAKPDVKPEAKPDVKPEAKPEAKPEAKSEAKPEAKLEAKPEAKPATKKSVNTSGNLAAKKAIENKKYSKKLPSTGEAASPLLAIVSLIVMLSAGLITIVLKHKKN” stands “failed”.
